Reference: the DeepSol protein solubility set

Assay: soluble on expression in E. coli; label from the status in PepcDB or PDB records

Row | Sequence | soluble on expression in E. coli
1 | MVKQLKFSEDARQAMLRGVDQLANAVKVTIGPKGRNVVLDKEFTAPLITNDGVTIAKEIELEDPYENMGAKLVQEVANKTNEIAGDGTTTATVLAQAMIQEGLKNVTSGANPVGLRQGIDKAVKVAVEALHENSQKVENKNEIAQVGAISAADEEIGRYISEAMEKVGNDGVITIEESNGLNTELEVVEGMQFDRGYQSPYMVTDSDKMVAELERPYILVTDKKISSFQDILPLLEQVVQSNRPILIVADEVEGDALTNIVLNRMRGTFTAVAVKAPGFGDRRKAMLEDLAILTGAQVITDDLGLDLKDASIDMLGTASKVEVTKDNTTVVDGDGDENSIDARVSQLKSQIEETESDFDREKLQERLAKLAGGVAVIKVGAASETELKERKLRIEDALNSTRAAVEEGIVAGGGTALVNVYQKVSEIEAEGDIETGVNIVLKALTAPVRQIAENAGLEGSVIVERLKNAEPGVGFNAATNEWVNMLEEGIVDPTKVTRSALQHAASVAAMFLTTEAVVASIPEKNNDQPNMGGMPGMM | not soluble
2 | MEIANKRAWREYISYEIIRLQMHQILTLFLLALAASPSQAVTDRSCGSDLSRLWLDIVFVVDNSKNMNLYNVYNTISNLFNPFVQIGTGYDDPRSTRVGFITYNWNATDVADFYKLQSYSDLSSQIQALSVTPLSRADETYIDTGLQAAINMINATGGLRDNYKKVVVLFTSKYNYYHTYPEDLTDYLKSTGVTIITVNTGGDSYTTQSLRDKIASKGMAFAMSDGNTTAELQKAVLAINCFCRPGWMQYHYPLKSDNIYSNYGVCLYRPDSAMTKFAAQSYCHSLTTNGYLVSELDQQKRAFNWDYLNSKGITINAFYNGLTNYNGTWWWDQPSGQPLWPLNPNSGAPPQRSGCVVDMKYSDGSISWTPISCTSFFRFLCESVACDTDNYCEF | not soluble
3 | MNLYRSRNFYARIRGDRALFTNPATKGGSERSSYSVPTRQALQGIIDGIYHKPTFTNVITEVKVVNQIQTELHGVRALLHDYSADLSYVSYLSDVEYLVKFHFIWNENREDLIQDRLPKKHEAIMERSIRKGGRRDIFLGTRECFGLVDEISQEEYETIPSYYNGVTIDLGIMFHSFAYPTSKDTPLKSYFTKTVMENGAIKFKPQSECEIVNTLSSYAFKSLGQLKSVDDEYVDDEYEEYEAMEKGEG | soluble
4 | MPDNEVDLLFAQLSPEDLIEWSDYLPESFTDRALAQMGERQRQRFELYDQYSENEIGRYTDHQMLVLSDKATVAQAQRFFRRIELDCNDNLFIVDEADKYLGTVRRYDIFKHEPHEPLISLLSEDSRALTANTTLLDAAEAIEHSREIELPVIDDAGELIGRVTLRAATALVREHYEAQLMATAGMDESDDLFAPILKGAQRRAV | soluble
5 | MGSDKIHHHHHHAMFPERYVSEESAARADTINFRLASAGEAKRLIAAKDSYTANWSPFDIAARLENPEGKREDLVSLAVREVREWTAEEAQQIEQIRKNLNDTIRKYGYRIPFPKEIVLVKTTMKDEGGAGGYTRSNWIALTDATFQRGTEASHTRLLVHETFHILTRLNPGFKKKLYRAIDFNILPKEIEFPEDIRKSRISNPDVSRCDSYATFTIDGKPQNCTMIIYTNRPYTTGKFYQYINVGLIPLDESFKPLRESGKTVIYPLQKATDFFDKVGRNTGYVIDPEEVLADNFAIALLNTPNVHTPELQKKVQELLK | not soluble
6 | DEFQWKGLPVVKSGLDVGGMPTGTRYHRSPAWPEEQPGETHAPAPFGSGDKRYTFSQTEMLVNGLKPYTEPTAGVPPQLLSRAVTHVRSYIETIIGTHRSPVLTYHQACELLERTTSCGPFVQGLKGDYWDEEQQQYTGVLANHLEQAWDKANKGIAPRNAYKLALKDELRPIEKNKAGKRRLLWGCDAATTLIATAAFKAVATRLQVVTPMTPVAVGINMDSVQMQVMNDSLKGGVLYCLDYSKWDSTQNPAVTAASLAILERFAEPHPIVSCAIEALSSPAEGYVNDIKFVTRGGLPSGMPFTSVVNSINHMIYVAAAILQAYESHNVPYTGNVFQVETIHTYGDDCMYSVCPATASIFHTVLANLTSYGLKPTAADKSDAIKPTNTPVFLKRTFTQTPHGIRALLDITSITRQFYWLKANRTSDPSSPPAFDRQARSAQLENALAYASQHGPVMFDTVRQIAIKTAQGEGLVLVNTNYDQALATYNAWFIGGTVPDPVGHTEGTHKIVFEME | soluble
7 | MKFGPASPKDAIGGVTVHTLRQGPLVLKKGTTIGPAEVEALERAGIKDVVVVRMEEGDVSEDVAAASIALAVGGEGIHVERAFTGRANLFAARPGVLVIDRAAVDRINNIDEAITFATLTAYKPVVEGEMVGTVKIIPFGVEGALRDAAVKAAGRDVLKIAPYAIKRVGVVSTLLPGLSSKVIDKTLRVTAERLAPSGAGIIAERRVQHDEHALSAAIKELLALGAELVIVFGASAIADRRDVIPAAVTGIGGEIEHFGMPVDPGNLLLIARAEGVPVLGAPGCARSPVENGFDWVLMRLLAGIKVTRAELMGMGVGGLLMEIVTRPQPRARPEIEGNSQVAAIVLAAGRSTRMGGPNKLLAELDGKKLVRIATEQALASKASEVIVVTGHQTELVEQALQGLKVKFARNPDFAGGIASSVKAGIAAVPEACDGAVVCLGDMPLIDAGLIDRLIDSFAPDRGNLIVVPVSEGRRGNPVLWSRRFFRELMTLDGDVGARHLIAKHTEAVAEVPVDGEGAFLDIDTPQALEAARRGLEHHHHHH | not soluble
8 | MGSDKIHHHHHHMPVGRGVSVGLLPKSQSPLIGVDISSTAVKLLQLSRSGNRFRVEHYAVEPLPPNAVVEKNIVEVEAVGEAIRRAINRSGSKAKNAAAAVAGSAVITKLIPMPADLDDSDLEAQVELEATNYIPYPIEEVNLDFEVLGPMPNSPDMVQVLLAASRSENVELRQSALELGGLVAKVMDVEAFAVENAFALVASELPVAADAVVALVDIGATMTTLSVLRSGRSLYSREQVFGGKQLTDEVMRRYGLTYEEAGLAKRQGGLPESYEVEVLEPFKEATVQQISRLLQFFYAGSEFNRVDCIVLAGGCAALSRLPEMVEEQLGVTTVVANPLAQMTLGPKVQAHALALDAPALMIATGLALRSFD | not soluble
9 | QTGVQTNTPFGSGEDSIRCRQNISLFTSYAKTGNYKDAYDFWEKAYEECPASTKNIYIYGVKISEWRLQNEQDPAKRQQIIDKILKLYDDRVKYFGEDPKYGTDYIMASKISDYMQYMGDKTDYDKVYEWIKPTIDQHGENATPRALFYYAYSSLNKAIRNEAWHETYIKDYTFASQAMEKQLEVADEKGKEFIQPLKTQIDELFAQSGLADCNTLVKMYGDKLEENKTDTTFLKNMLGMFHASDCETHPLYFQANK | not soluble
10 | MHPASGVMVTVETPETDTVFNRCRPAADGDIVVPHGSTAVLGTTSVDVDDADEFATPDAAVERVIDECSALLPAASDAPIRTTYWGVRPLYSPSDYGDDARAISRGFYVLDHADRDDTAGLTTVVGGKLTTHRLMAEATADLVADRLGVTEPSRTANEPLPGHDDPERLDALVDTFDAASPADADARLEHHHHHH | not soluble
11 | MVGPLNGAIGDITGAASELENIPFIGPAIGAKLQRTMRGINVAQAKVGQVVAMYGRATSAVSQVQERIGTLKEQASKASAAINRVAGKISPSLGNIVPTGSFASQATPAPEAVKPFPHLLIIQPLKPEAQPYYFNLDTAAFDELRRQTAFRWAGQERLTRSIAQQAVGLGDDKLSLKGSIFPGFKGGLKQLNTLRSMGRNLQPLSLTTGYGEVLGNWCLLSVDEEQSNLLAGGIPRKQGFSLEFVSYGDDLQNV | not soluble
12 | MNVSHISAVSYYFARYIQEVLEVPVGIVVSTWGGSKIEAWMSRESIKPFSSIDLSILDNDAEVKNPTATPCVLYNGKIAPLTNFAVRGFLWYQGESNRDNADLYQSLMPAFVADLRAKWGRGELPFYFVQIAPFDYEGADGTSAARLREVQLQNMKDIPNSGMVTTMDVGHPVFIHPVDKETVGNRLAYWALAQTYGMKGFGYAPPVYKSMEIQENKIYINFYNAQRGLSPMWTSLKGFEIAGEDKVFYPAFAEIETTTARLAVSSDKVSHPVAVRYAYKNYVEASIFSIHGIPAAPFRTDNWLEHHHHHH | not soluble
13 | MHRLKYLTGYPPQLTAQVAHLVTENRLGEVLVQRYPTVHDVRTDRALYDFTVAVKNEFMRTAQPLSRVLYDGKIHAIKNALGTHTFVSRVQGGKLKAKHEIRIASIFREAPLEFLKMIVVHELAHLKEKEHNKAFYQLCEYMEPRYHQLEFDTRLFLTQVEIAGSPYLPLEHHHHHH | soluble
14 | MHHHHHHENLYFQSNAMAKSRLLLSELLDQLSFALCIVRNDYVIVKVNEYFESRVIFDGETMQGKNILELFPESADYLKRKIDTALVIESSSFSSWEQKPHLLPFKSSRPVSGEEEQMYQNLEVIPIHSEDGTIEHVCLCVYDVTIQASQQQ | soluble
